In article PMC8142927, “Destabilization of EpCAM dimer is associated with increased susceptibility towards cleavage by TACE” (PeerJ, 2021):

Target: the molecule itself
Experiment: SEC-MALS; SEC with right- and low-angle laser light scattering detectors (SEC-RALLS/LALLS, OMNISEC), Superdex 200 Increase 10/300 GL, 150 μg of protein injected per run, 25 °C, 0.5 ml/min, 20 mM HEPES, pH 7.5, 100 mM NaCl; dimer to monomers

Protein	stoichiometry N
EpEX (EpCAM extracellular part, residues 24-265, with mutated N-glycosylation sites N74Q, N111Q and N198Q) (domain or fragment, human, Epithelial cell adhesion molecule (EpCAM, CD326), human, extracellular part EpEX, residues 24-265, N-glycosylation sites mutated; residues translated from the XhoI scar, between K265 and the His6-tag; in solution it is a dimer in equilibrium with a small amount of monomer; also called wild type-like EpEX; non-glycosylated EpEX variant; source: Sf9 insect cells (baculovirus), culture supernatant, …) QEECVCENYKLAVNCFVNNNRQCQCTSVGAQNTVICSKLAAKCLVMKAEMQGSKLGRRAKPEGALQNNDGLYDPDCDESGLFKAKQCQGTSMCWCVNTAGVRRTDKDTEITCSERVRTYWIIIELKHKAREKPYDSKSLRTALQKEITTRYQLDPKFITSILYENNVITIDLVQQSSQKTQNDVDIADVAYYFEKDVKGESLFHSKKMDLTVNGEQLDLDPGQTLIYYVDEKAPEFSMQGLKLE	2
EpEX L264C (domain or fragment, human, disulfide bond between the introduced cysteine residues (C264) of the two subunits, residues translated from the XhoI scar, between K265 and the His6-tag; Derived from m1; the protein is a constitutive dimer of two subunits linked by a disulfide; PDB 4mzv is the parent EpEX; also called disulfide-stabilized dimeric form; covalently stabilized EpEX dimer; source: Sf9 insect cells (baculovirus), culture supernatant, purified (His-tag column, ion exchange, SEC); not shown: His6, …) QEECVCENYKLAVNCFVNNNRQCQCTSVGAQNTVICSKLAAKCLVMKAEMQGSKLGRRAKPEGALQNNDGLYDPDCDESGLFKAKQCQGTSMCWCVNTAGVRRTDKDTEITCSERVRTYWIIIELKHKAREKPYDSKSLRTALQKEITTRYQLDPKFITSILYENNVITIDLVQQSSQKTQNDVDIADVAYYFEKDVKGESLFHSKKMDLTVNGEQLDLDPGQTLIYYVDEKAPEFSMQGCKLE	2
